The values that follow come from PMC5493759, “Neurovascular EGFL7 regulates adult neurogenesis in the subventricular zone and thereby affects olfactory perception” (Nature Communications, 2017).

Common to all, as to assay: co-IP; Flag-tagged EGFL7 co-expressed with V5-tagged Notch ECDs or Notch1-ECD deletion mutants in HEK293; lysate immunoprecipitated with Immunosorb A overnight at 4 °C; quantitative western blot (Odyssey); n=3
Test [1] concerns the target V5-tagged Notch1-ECD deletion mutant Notch1-Δ11+12 (UniProt Q01705).
For test [2], the target named is V5-tagged Notch1-ECD deletion mutant Notch1-Δ5–10 (UniProt Q01705).
The target in test [3] is V5-tagged Notch1-ECD deletion mutant Notch1-Δ8 (UniProt Q01705).
Test [4] deals with T1, V5-tagged Notch2 extracellular domain (UniProt O35516 26-1679).
T1 construct: Notch2, extracellular domain; source: HEK293, transiently transfected, in lysate
The settings on record: partners not purified.

Test [5] deals with T2, V5-tagged Notch4 extracellular domain (UniProt P31695 21-1443).
T2 construct: Notch4, extracellular domain; source: HEK293, transiently transfected, in lysate
T2 sequence (looked up): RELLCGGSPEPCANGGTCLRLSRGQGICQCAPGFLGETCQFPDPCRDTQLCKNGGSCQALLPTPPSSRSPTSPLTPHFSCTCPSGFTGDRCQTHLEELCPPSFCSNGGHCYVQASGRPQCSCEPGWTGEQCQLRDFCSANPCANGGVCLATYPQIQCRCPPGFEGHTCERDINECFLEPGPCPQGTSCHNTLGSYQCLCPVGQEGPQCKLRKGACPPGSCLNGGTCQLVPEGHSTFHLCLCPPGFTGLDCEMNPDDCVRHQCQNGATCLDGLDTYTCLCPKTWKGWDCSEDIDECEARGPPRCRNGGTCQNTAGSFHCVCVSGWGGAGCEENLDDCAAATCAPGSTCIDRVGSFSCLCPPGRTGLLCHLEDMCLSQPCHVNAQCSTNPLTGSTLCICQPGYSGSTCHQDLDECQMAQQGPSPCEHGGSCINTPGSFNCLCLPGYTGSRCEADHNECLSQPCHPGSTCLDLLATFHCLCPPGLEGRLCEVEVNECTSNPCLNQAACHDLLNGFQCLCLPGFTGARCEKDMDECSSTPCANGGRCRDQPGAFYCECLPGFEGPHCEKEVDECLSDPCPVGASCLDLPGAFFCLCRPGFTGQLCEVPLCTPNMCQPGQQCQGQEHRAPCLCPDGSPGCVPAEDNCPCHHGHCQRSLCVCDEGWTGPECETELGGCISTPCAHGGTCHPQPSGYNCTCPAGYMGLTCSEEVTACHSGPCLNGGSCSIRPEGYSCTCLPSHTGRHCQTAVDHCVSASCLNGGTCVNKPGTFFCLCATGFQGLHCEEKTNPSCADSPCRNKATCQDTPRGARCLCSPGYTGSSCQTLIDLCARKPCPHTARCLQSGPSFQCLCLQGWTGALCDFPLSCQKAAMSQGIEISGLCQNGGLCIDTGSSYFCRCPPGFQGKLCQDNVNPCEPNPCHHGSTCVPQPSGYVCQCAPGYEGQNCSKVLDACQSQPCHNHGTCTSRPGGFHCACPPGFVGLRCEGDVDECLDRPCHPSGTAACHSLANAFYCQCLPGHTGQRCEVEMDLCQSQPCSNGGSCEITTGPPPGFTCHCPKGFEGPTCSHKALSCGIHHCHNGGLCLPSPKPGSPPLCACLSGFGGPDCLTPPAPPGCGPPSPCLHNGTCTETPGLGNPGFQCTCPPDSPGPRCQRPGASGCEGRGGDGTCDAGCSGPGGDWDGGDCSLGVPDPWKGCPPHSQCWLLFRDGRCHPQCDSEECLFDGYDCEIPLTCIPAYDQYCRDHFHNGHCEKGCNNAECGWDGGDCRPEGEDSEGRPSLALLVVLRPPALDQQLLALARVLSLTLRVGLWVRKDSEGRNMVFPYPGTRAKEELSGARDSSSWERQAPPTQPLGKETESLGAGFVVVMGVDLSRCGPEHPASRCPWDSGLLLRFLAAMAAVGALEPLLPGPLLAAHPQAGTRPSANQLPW
The settings on record: partners not purified.

In test [6] the target is T3, V5-tagged Notch3 extracellular domain (UniProt Q61982 40-1643).
T3 construct: Notch3, extracellular domain; source: HEK293, transiently transfected, in lysate
The settings on record: partners not purified.

T3 sequence (Q61982 40-1643): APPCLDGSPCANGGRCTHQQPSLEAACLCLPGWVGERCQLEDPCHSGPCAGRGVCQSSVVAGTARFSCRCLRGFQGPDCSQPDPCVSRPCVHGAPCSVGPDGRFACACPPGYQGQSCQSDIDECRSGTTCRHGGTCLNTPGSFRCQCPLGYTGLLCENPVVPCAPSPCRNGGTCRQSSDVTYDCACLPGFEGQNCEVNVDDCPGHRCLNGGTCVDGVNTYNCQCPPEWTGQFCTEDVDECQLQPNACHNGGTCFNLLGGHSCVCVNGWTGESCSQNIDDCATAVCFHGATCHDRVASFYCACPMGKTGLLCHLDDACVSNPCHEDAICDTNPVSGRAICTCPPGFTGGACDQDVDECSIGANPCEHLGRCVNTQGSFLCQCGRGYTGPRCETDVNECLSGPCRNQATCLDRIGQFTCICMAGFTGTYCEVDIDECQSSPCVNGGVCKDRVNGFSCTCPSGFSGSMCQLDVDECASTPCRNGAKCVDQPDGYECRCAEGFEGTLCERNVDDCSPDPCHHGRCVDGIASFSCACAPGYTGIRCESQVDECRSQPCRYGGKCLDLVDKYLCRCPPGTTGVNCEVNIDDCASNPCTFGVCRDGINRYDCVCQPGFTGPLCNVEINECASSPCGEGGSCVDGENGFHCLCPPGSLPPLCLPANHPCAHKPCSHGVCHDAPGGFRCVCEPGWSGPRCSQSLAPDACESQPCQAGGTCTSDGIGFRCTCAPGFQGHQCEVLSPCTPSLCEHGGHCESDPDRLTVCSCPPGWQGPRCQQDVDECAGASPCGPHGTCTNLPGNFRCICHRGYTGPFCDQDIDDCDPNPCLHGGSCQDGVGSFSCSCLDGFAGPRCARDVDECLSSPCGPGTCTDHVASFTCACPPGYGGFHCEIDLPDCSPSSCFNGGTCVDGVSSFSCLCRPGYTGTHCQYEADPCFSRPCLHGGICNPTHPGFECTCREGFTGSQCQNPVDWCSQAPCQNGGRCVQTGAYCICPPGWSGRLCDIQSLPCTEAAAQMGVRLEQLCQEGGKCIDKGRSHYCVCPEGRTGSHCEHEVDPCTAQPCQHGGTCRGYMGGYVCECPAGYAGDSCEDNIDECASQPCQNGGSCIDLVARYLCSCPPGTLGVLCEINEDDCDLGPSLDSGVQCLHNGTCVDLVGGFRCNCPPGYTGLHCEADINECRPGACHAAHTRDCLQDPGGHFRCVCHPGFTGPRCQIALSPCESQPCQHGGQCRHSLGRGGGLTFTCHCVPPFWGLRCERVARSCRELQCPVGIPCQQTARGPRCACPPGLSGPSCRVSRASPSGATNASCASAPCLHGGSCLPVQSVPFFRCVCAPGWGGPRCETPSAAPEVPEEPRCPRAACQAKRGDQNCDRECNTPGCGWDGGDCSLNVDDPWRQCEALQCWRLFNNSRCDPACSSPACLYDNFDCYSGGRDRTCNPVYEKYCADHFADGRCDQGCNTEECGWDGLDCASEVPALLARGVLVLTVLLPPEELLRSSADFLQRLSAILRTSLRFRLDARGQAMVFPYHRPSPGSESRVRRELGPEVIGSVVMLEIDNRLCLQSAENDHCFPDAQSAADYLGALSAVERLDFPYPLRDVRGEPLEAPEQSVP
T1 sequence (O35516 26-1679): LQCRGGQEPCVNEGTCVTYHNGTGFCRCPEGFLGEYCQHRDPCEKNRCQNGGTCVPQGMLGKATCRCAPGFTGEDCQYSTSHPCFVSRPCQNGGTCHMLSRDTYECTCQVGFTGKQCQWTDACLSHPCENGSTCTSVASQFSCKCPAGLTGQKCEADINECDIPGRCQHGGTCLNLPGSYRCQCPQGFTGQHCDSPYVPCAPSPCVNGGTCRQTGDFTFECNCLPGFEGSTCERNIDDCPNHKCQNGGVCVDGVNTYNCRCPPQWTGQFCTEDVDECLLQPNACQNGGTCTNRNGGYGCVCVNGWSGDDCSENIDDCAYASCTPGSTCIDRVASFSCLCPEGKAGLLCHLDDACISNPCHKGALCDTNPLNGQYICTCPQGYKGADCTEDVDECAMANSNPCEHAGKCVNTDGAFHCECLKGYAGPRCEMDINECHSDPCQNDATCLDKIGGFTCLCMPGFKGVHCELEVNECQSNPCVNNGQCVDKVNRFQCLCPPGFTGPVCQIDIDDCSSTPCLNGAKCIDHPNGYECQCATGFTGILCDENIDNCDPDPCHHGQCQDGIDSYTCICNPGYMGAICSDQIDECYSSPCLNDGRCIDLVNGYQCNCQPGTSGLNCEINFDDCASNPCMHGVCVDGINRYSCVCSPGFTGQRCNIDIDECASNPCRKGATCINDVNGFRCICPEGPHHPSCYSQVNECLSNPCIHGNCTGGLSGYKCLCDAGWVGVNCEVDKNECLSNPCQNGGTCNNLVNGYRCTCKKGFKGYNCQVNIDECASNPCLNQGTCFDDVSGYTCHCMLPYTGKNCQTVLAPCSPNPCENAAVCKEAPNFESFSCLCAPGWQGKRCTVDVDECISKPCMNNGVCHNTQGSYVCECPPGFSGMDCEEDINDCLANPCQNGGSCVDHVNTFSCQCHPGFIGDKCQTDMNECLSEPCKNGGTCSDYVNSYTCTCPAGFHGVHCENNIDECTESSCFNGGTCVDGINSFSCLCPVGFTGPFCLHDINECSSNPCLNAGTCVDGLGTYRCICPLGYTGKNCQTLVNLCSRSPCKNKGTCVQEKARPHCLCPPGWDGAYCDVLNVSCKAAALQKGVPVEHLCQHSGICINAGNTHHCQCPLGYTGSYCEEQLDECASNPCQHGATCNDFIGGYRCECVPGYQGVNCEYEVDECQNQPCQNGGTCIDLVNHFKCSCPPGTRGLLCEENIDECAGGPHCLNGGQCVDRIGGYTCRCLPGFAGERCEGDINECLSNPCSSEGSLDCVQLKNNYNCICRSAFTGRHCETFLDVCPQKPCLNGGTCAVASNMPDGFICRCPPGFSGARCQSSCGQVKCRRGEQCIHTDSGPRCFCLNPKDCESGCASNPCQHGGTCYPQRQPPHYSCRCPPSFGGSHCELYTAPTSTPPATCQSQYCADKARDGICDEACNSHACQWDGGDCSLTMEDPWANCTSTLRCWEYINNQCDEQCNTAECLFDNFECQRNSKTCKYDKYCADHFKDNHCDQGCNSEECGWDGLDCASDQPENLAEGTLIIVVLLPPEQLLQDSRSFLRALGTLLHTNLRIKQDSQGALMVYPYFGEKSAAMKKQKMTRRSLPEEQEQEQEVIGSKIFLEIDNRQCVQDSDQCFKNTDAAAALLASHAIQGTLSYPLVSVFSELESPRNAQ
V5-tagged Notch1-ECD deletion mutant Notch1-Δ5–10, sequence (Q01705 19-1725, stated change not applied): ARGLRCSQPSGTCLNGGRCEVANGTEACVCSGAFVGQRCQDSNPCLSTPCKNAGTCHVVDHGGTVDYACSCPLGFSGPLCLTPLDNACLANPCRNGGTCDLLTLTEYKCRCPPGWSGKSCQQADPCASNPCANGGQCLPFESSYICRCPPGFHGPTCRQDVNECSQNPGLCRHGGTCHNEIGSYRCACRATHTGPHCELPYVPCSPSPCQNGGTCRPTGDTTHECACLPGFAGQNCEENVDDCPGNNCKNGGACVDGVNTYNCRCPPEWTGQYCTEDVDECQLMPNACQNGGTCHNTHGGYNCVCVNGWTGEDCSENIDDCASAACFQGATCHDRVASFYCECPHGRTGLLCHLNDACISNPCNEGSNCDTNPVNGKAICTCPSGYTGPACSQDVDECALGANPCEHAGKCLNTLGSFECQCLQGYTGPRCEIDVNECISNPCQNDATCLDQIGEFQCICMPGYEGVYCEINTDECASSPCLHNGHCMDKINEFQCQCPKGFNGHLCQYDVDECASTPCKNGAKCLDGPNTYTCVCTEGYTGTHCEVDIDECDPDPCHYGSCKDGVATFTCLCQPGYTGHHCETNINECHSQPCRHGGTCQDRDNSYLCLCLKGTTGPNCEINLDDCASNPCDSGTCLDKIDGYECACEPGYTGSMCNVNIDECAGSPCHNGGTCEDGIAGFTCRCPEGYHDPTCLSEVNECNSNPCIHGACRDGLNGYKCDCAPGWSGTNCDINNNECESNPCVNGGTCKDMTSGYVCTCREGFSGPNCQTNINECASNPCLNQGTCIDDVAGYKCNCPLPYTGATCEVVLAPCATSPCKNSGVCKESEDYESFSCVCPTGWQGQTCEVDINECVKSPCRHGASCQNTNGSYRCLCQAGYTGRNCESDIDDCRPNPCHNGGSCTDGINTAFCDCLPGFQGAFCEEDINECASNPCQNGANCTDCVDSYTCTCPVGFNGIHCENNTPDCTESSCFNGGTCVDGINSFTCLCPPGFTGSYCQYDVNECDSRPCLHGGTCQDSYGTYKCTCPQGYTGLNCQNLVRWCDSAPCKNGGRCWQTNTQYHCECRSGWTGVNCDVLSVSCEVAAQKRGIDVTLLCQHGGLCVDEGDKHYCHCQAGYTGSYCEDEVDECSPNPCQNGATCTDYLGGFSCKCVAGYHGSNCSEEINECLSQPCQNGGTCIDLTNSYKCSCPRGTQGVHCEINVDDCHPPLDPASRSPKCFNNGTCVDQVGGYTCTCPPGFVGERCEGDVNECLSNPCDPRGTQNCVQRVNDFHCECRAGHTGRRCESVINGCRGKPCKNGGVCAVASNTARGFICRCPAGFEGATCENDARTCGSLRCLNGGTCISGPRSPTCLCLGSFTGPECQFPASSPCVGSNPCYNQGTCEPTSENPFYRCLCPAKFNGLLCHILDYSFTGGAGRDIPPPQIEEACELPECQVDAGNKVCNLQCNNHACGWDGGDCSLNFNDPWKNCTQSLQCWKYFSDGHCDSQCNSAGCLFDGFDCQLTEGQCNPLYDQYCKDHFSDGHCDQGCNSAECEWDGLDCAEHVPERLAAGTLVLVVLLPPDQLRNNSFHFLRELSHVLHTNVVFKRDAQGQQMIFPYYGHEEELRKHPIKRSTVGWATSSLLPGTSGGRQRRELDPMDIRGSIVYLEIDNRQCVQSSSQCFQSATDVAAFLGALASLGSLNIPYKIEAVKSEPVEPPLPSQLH
V5-tagged Notch1-ECD deletion mutant Notch1-Δ8, sequence (Q01705 19-1725, stated change not applied): as above
V5-tagged Notch1-ECD deletion mutant Notch1-Δ11+12, sequence (Q01705 19-1725, stated change not applied): as above

B1: Flag-tagged EGFL7 (epidermal growth factor-like protein 7) (natural protein, UniProt Q9QXT5 22-275, looked up)
chain: EHVYRPSRRVCTVGISGGSISETFVQRVYQPYLTTCDGHRACSTYRTIYRTAYRRSPGVTPARPRYACCPGWKRTSGLPGACGAAICQPPCGNGGSCIRPGHCRCPVGWQGDTCQTDVDECSTGEASCPQRCVNTVGSYWCQGWEGQSPSADGTRCLSKEGPSPVAPNPTAGVDSMAREEVYRLQARVDVLEQKLQLVLAPLHSLASRSTEHGLQDPGSLLAHSFQQLDRIDSLSEQVSFLEEHLGSCSCKKDL
notes: epidermal growth factor-like protein 7 (EGFL7); the same molecule is used here; source: HEK293, transiently transfected, in lysate
On to B1, for which the change in binding relative to Notch1-ECD in test [1] was -26%; in test [2] it was -18%; in test [3] it was -28%. Moreover, the “binding relative to Notch1-ECD” value was ~76% in test [4], ~35% in test [5] and ~41% in test [6].
